# Measurements: paper PMC6077193, “Intravascular Schistosoma mansoni Cleave the Host Immune and Hemostatic Signaling Molecule Sphingosine-1-Phosphate via Tegumental Alkaline Phosphatase” (Frontiers in Immunology, 2018)
# Key:
# Test in all cases: purified protein
# [1] = tested on: Nc1nc2c(ncn2[C@@H]2O[C@H](COP(=O)(O)O)[C@@H](O)[C@H]2O)c(=O)[nH]1; details: 50 mM Tris-HCl pH 9, 5 mM KCl, 135 mM NaCl, 10 mM glucose, 10 mM MgCl2, 0-2 mM substrate
# [2] = tested on: Cc1cn([C@H]2C[C@H](O)[C@@H](COP(=O)(O)O)O2)c(=O)[nH]c1=O; details: 50 mM Tris-HCl pH 9, 5 mM KCl, 135 mM NaCl, 10 mM glucose, 10 mM MgCl2, 0-2 mM substrate
# [3] = tested on: Nc1ccn([C@@H]2O[C@H](COP(=O)(O)O)[C@@H](O)[C@H]2O)c(=O)n1; details: 50 mM Tris-HCl pH 9, 5 mM KCl, 135 mM NaCl, 10 mM glucose, 10 mM MgCl2, 0-2 mM substrate
# [4] = tested on: Nc1ncnc2c1ncn2[C@@H]1O[C@H](COP(=O)(O)O)[C@@H](O)[C@H]1O; details: 50 mM Tris-HCl pH 9, 5 mM KCl, 135 mM NaCl, 10 mM glucose, 10 mM MgCl2, 0-2 mM substrate
# [5] = tested on: O=[N+]([O-])c1ccc(OP(=O)(O)O)cc1; details: 50 mM Tris-HCl pH 9, 5 mM KCl, 135 mM NaCl, 10 mM glucose, 10 mM MgCl2
substance,measurement,setting,value
rSmAP (recombinant Schistosoma mansoni alkaline phosphatase) (Schistosoma mansoni),Km,[1],640 ± 11 µM
same,Km,[2],595 µM
same,Km,[3],630 ± 20 µM
same,Km,[4],650 µM
same,Km,[5],288 ± 12 µM
